# Experimental data published in patent publication US20160297889A1 (TORAY INDUSTRIES, published 2016).
# T1: CAPRIN-1 protein expressed on the membrane surface of human cancer cells (human, UniProt Q14444 2-709)
# T1 sequence (looked up): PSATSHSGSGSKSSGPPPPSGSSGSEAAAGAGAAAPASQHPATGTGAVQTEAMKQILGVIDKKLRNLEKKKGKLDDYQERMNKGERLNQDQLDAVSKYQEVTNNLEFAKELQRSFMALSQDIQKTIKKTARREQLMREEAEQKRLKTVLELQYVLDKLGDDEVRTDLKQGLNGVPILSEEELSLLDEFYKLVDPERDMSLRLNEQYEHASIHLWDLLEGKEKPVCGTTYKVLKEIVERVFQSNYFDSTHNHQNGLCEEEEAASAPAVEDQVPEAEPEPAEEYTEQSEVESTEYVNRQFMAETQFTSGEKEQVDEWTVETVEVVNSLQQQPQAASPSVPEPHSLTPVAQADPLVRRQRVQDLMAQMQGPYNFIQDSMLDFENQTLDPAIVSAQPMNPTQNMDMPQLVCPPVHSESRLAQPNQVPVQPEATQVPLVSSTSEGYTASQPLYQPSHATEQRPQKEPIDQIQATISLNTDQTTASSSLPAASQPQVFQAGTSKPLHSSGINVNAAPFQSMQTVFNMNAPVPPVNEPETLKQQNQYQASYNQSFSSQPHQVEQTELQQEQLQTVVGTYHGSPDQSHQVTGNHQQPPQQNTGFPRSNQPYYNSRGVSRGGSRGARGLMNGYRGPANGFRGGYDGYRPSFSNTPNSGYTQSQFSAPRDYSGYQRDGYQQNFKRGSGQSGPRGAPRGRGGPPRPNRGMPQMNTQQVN
# Molecular target: T1, CAPRIN-1 protein expressed on the …
# Assay: cell-based or functional assay
Binder,ADCC cytotoxic activity (51Cr release) on 22Rv1 [%],ADCC cytotoxic activity (51Cr release) on A-673 [%],ADCC cytotoxic activity (51Cr release) on BT-474 [%],ADCC cytotoxic activity (51Cr release) on Caki-2 [%],ADCC cytotoxic activity (51Cr release) on FaDu [%],ADCC cytotoxic activity (51Cr release) on G-361 [%],ADCC cytotoxic activity (51Cr release) on HEC-1-A [%],ADCC cytotoxic activity (51Cr release) on HT-29 [%],ADCC cytotoxic activity (51Cr release) on HT-1080 [%],ADCC cytotoxic activity (51Cr release) on HT-1376 [%]
"humanized antibody #7 (antibody, V domains shown) VH: EVQLVESGGGLVQPGGSLRLSCAASGFSLSSHSLGWVRQAPGKGLEWIGDIRSGGSAYYANWAKGRFTISRDNSKNTLYLQMNSLRAEDTAVYYCTRTNGPSDLTNRLDLWGQGTLVTVSS VL: QVLTQSPSSLSASVGDRVTINCQASQSLYNNENLAWFQQKPGKVPKRLIYGASTLASGVSSRFSGSGSGTEFTLTISSLQCEDFAIYYCLGEFSCGSADCFAFGGGTKVEIK",≥ 49,≥ 50,≥ 54,≥ 37,≥ 50,≥ 25,≥ 52,≥ 43,≥ 30,≥ 45
"humanized antibody #2 (antibody, V domains shown) VH: EVQLVESGGGLVQPGGSLRLSCAASGFSLSSHSLGWVRQAPGKGLEWIGDIRSGGSAYYANWAKGRFTISRDNSKNTLYLQMNSLRAEDTAVYYCTRTNGPSDLTNRLDLWGQGTLVTVSS VL: EIVLTQSPSSLSASVGDRVTINCQASQSLYNNENLAWFQQKPGKVPKRLIYGASTLASGVSSRFSGSGSGTEFTLTISNLQPEDFATYYCLGEFSCGSADCFAFGGGTKVEIK",≥ 45,≥ 46,≥ 50,≥ 33,≥ 40,≥ 21,≥ 45,≥ 40,≥ 25,≥ 40
"humanized antibody #6 (antibody, V domains shown) VH: EVQLVESGGGLVQPGGSLRLSCAASGFSLSSHSLGWVRQAPGKGLEWIGDIRSGGSAYYANWAKGRFTISRDNSKNTLYLQMNSLRAEDTAVYFCTRTNGPSDLTNRLDLWGQGTLVTVSS VL: QVLTQSPSSLSASVGDRVTINCQASQSLYNNENLAWFQQKPGKVPKRLIYGASTLASGVSSRFSGSGSGTEFTLTISSLQCEDFAIYYCLGEFSCGSADCFAFGGGTKVEIK",≥ 49,≥ 50,≥ 54,≥ 37,≥ 50,≥ 25,≥ 52,≥ 43,≥ 30,≥ 45
"humanized antibody #10 (antibody, V domains shown) VH: EQSLVESGGGLVQPGGSLRLSCAASGFSLSSHSLGWVRQAPGKGLEWIGDIRSGGSAYYANWAKGRFTISRDNSKNTLYLQMNSLRAEDTAVYYCTRTNGPSDLTNRLDLWGQGTLVTVSS VL: QVLTQSPSSLSASVGDRVTINCQASQSLYNNENLAWFQQKPGKVPKRLIYGASTLASGVSSRFSGSGSGTEFTLTISSLQCEDFAIYYCLGEFSCGSADCFAFGGGTKVEIK",≥ 49,≥ 50,≥ 54,≥ 37,≥ 50,≥ 25,≥ 52,≥ 43,≥ 30,≥ 45

# Same assay, conditions: not given
Binder,ADCC cytotoxic activity (51Cr release) on Hep3B [%],ADCC cytotoxic activity (51Cr release) on IM-9 [%],ADCC cytotoxic activity (51Cr release) on MDA-MB-361 [%],ADCC cytotoxic activity (51Cr release) on NCI-H2452 [%],ADCC cytotoxic activity (51Cr release) on NCI-N87 [%],ADCC cytotoxic activity (51Cr release) on NT/D1 [%],ADCC cytotoxic activity (51Cr release) on OCI-AML5 [%],ADCC cytotoxic activity (51Cr release) on OE33 [%],ADCC cytotoxic activity (51Cr release) on Panc10.5 [%],ADCC cytotoxic activity (51Cr release) on QG56 [%]
"humanized antibody #7 (antibody, V domains shown) VH: EVQLVESGGGLVQPGGSLRLSCAASGFSLSSHSLGWVRQAPGKGLEWIGDIRSGGSAYYANWAKGRFTISRDNSKNTLYLQMNSLRAEDTAVYYCTRTNGPSDLTNRLDLWGQGTLVTVSS VL: QVLTQSPSSLSASVGDRVTINCQASQSLYNNENLAWFQQKPGKVPKRLIYGASTLASGVSSRFSGSGSGTEFTLTISSLQCEDFAIYYCLGEFSCGSADCFAFGGGTKVEIK",≥ 28,≥ 35,≥ 52,≥ 35,≥ 45,≥ 37,≥ 20,≥ 35,≥ 35,≥ 46
"humanized antibody #2 (antibody, V domains shown) VH: EVQLVESGGGLVQPGGSLRLSCAASGFSLSSHSLGWVRQAPGKGLEWIGDIRSGGSAYYANWAKGRFTISRDNSKNTLYLQMNSLRAEDTAVYYCTRTNGPSDLTNRLDLWGQGTLVTVSS VL: EIVLTQSPSSLSASVGDRVTINCQASQSLYNNENLAWFQQKPGKVPKRLIYGASTLASGVSSRFSGSGSGTEFTLTISNLQPEDFATYYCLGEFSCGSADCFAFGGGTKVEIK",≥ 25,≥ 30,≥ 45,≥ 39,≥ 38,≥ 30,≥ 18,≥ 33,≥ 30,≥ 42
"humanized antibody #6 (antibody, V domains shown) VH: EVQLVESGGGLVQPGGSLRLSCAASGFSLSSHSLGWVRQAPGKGLEWIGDIRSGGSAYYANWAKGRFTISRDNSKNTLYLQMNSLRAEDTAVYFCTRTNGPSDLTNRLDLWGQGTLVTVSS VL: QVLTQSPSSLSASVGDRVTINCQASQSLYNNENLAWFQQKPGKVPKRLIYGASTLASGVSSRFSGSGSGTEFTLTISSLQCEDFAIYYCLGEFSCGSADCFAFGGGTKVEIK",≥ 28,≥ 35,≥ 52,≥ 35,≥ 45,≥ 37,≥ 20,≥ 35,≥ 35,≥ 46
"humanized antibody #10 (antibody, V domains shown) VH: EQSLVESGGGLVQPGGSLRLSCAASGFSLSSHSLGWVRQAPGKGLEWIGDIRSGGSAYYANWAKGRFTISRDNSKNTLYLQMNSLRAEDTAVYYCTRTNGPSDLTNRLDLWGQGTLVTVSS VL: QVLTQSPSSLSASVGDRVTINCQASQSLYNNENLAWFQQKPGKVPKRLIYGASTLASGVSSRFSGSGSGTEFTLTISSLQCEDFAIYYCLGEFSCGSADCFAFGGGTKVEIK",≥ 28,≥ 35,≥ 52,≥ 35,≥ 45,≥ 37,≥ 20,≥ 35,≥ 35,≥ 46

# Same assay, conditions: not given
Binder,ADCC cytotoxic activity (51Cr release) on RD-ES [%],ADCC cytotoxic activity (51Cr release) on RPM11666 [%],ADCC cytotoxic activity (51Cr release) on Ramos [%],ADCC cytotoxic activity (51Cr release) on SKOV3 [%],ADCC cytotoxic activity (51Cr release) on T24 [%],ADCC cytotoxic activity (51Cr release) on TGBC14TKB [%],ADCC cytotoxic activity (51Cr release) on TT [%],ADCC cytotoxic activity (51Cr release) on U-87MG [%]
"humanized antibody #7 (antibody, V domains shown) VH: EVQLVESGGGLVQPGGSLRLSCAASGFSLSSHSLGWVRQAPGKGLEWIGDIRSGGSAYYANWAKGRFTISRDNSKNTLYLQMNSLRAEDTAVYYCTRTNGPSDLTNRLDLWGQGTLVTVSS VL: QVLTQSPSSLSASVGDRVTINCQASQSLYNNENLAWFQQKPGKVPKRLIYGASTLASGVSSRFSGSGSGTEFTLTISSLQCEDFAIYYCLGEFSCGSADCFAFGGGTKVEIK",≥ 48,≥ 40,≥ 20,≥ 35,≥ 36,≥ 35,≥ 42,≥ 36
"humanized antibody #2 (antibody, V domains shown) VH: EVQLVESGGGLVQPGGSLRLSCAASGFSLSSHSLGWVRQAPGKGLEWIGDIRSGGSAYYANWAKGRFTISRDNSKNTLYLQMNSLRAEDTAVYYCTRTNGPSDLTNRLDLWGQGTLVTVSS VL: EIVLTQSPSSLSASVGDRVTINCQASQSLYNNENLAWFQQKPGKVPKRLIYGASTLASGVSSRFSGSGSGTEFTLTISNLQPEDFATYYCLGEFSCGSADCFAFGGGTKVEIK",≥ 40,≥ 36,≥ 18,≥ 31,≥ 33,≥ 30,≥ 35,≥ 29
"humanized antibody #6 (antibody, V domains shown) VH: EVQLVESGGGLVQPGGSLRLSCAASGFSLSSHSLGWVRQAPGKGLEWIGDIRSGGSAYYANWAKGRFTISRDNSKNTLYLQMNSLRAEDTAVYFCTRTNGPSDLTNRLDLWGQGTLVTVSS VL: QVLTQSPSSLSASVGDRVTINCQASQSLYNNENLAWFQQKPGKVPKRLIYGASTLASGVSSRFSGSGSGTEFTLTISSLQCEDFAIYYCLGEFSCGSADCFAFGGGTKVEIK",≥ 48,≥ 40,≥ 20,≥ 35,≥ 36,≥ 35,≥ 42,≥ 36
"humanized antibody #10 (antibody, V domains shown) VH: EQSLVESGGGLVQPGGSLRLSCAASGFSLSSHSLGWVRQAPGKGLEWIGDIRSGGSAYYANWAKGRFTISRDNSKNTLYLQMNSLRAEDTAVYYCTRTNGPSDLTNRLDLWGQGTLVTVSS VL: QVLTQSPSSLSASVGDRVTINCQASQSLYNNENLAWFQQKPGKVPKRLIYGASTLASGVSSRFSGSGSGTEFTLTISSLQCEDFAIYYCLGEFSCGSADCFAFGGGTKVEIK",≥ 48,≥ 40,≥ 20,≥ 35,≥ 36,≥ 35,≥ 42,≥ 36
